Results from the supplement of paper PMC10567573.
± gives the standard deviation.

Assay: protein stability index of a GFP-peptide fusion (GPS, HEK-293T) (PSI 1-6); higher = more stable
Details: c terminus: a fixed tail appended
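Further: 24-mer peptide tiles fused after GFP, lentivirally expressed, FACS-sorted into six equal bins by GFP/DsRed ratio, decoded by Illumina sequencing, PSI is the read-weighted mean bin number.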

Sequence | protein stability index (treatment: DMSO) | protein stability index (treatment: MLN4924 1 uM, 8 h)
IRAAKGLDQALKEGGKLPPPPPPS [ZC2HC1A] | 4.35 ± 0.24 | 4.48 ± 0.4
NLAQDPQCKEWQVLMCGFPFLLLF [TMEM120A] | 2.5 ± 0.61 | 2.35 ± 0.61
GLAGFFASVAMICAIASGSELSES [SLC29A1] | 3 ± 0.53 | 2.9 ± 0.37
ALQSRAAQRHRGSAKDGGPQPPDA [PLEKHN1] | 4.57 ± 0.49 | 4.96 ± 0.34
NESKGTRESWDSAKKLPPVQESQS [ELOA2] | 5.41 ± 0.096 | 5.1 ± 0.4
FVATFLRYAVVLNATWLVNSAAHL [SCD] | 3.31 ± 0.7 | 2.97 ± 0.33
FLLKFLLVGDSDVGKGEILASLQD [RAB40B] | 3.52 ± 0.49 | 1.86 ± 0.28
AITTDCLQILAYGNQESKLIILAS [CTNNB1] | 2.85 ± 0.64 | 2.81 ± 0.84
IAQCQDSPTSGKFRRGSGSACSLL [MCOLN1] | 3.4 ± 0.2 | 3.63 ± 0.2
SGFSARERLERAVSDRLAPGAPRG [MYCL] | 4.13 ± 0.3 | 4.16 ± 0.2
DARVKRKLRGPEPAATEAYGSGDT [TBX6] | 5.16 ± 0.3 | 5.24 ± 0.22
GTPGPFTKEGGMLAYYEVCSWKGA [CHIT1] | 2.47 ± 0.17 | 2.55 ± 0.55
HLTKKDLRVHLKMVDSFHRTSLQY [PPFIA4] | 2.24 ± 0.25 | 2.11 ± 0.41
VQEHARCVHPRGGVIQSVSSWKHG [C18orf25] | 3.08 ± 0.28 | 3.03 ± 0.4
PAQRITLAEALLHPFFAGLTPEER [CLK3] | 3 ± 0.28 | 3.13 ± 0.27
TDIDIDTLCAVLERDTLSIRESRL [BTBD1] | 2.84 ± 0.2 | 3.15 ± 0.37
FPRDAVQIEEVFISEEIQMSTKES [MIA2] | 4.56 ± 0.17 | 4.5 ± 0.2
FSGSLVAALSATGPRFLAYFGSFA [TMEM175] | 2.91 ± 0.11 | 2.61 ± 0.37
LPELFHKIGVGAMTWSPLACGIVS [KCNAB2] | 2.74 ± 0.42 | 2.84 ± 0.46
DESLTDLEAQPYEAVFLRAVKLYN [P3H4] | 2.58 ± 0.21 | 2.71 ± 0.36
LLTTSGIQFKKHEEEGIETQYFAE [CNOT7] | 4.13 ± 0.13 | 4.19 ± 0.11
SLLSKARGIDSSSVKLRGSSLFMD [WEE1] | 2.75 ± 0.2 | 2.49 ± 0.19
KAPDIECVLRCSVLEIEQSMNRVK [FEM1B] | 2.3 ± 0.41 | 2.55 ± 0.51

Sequence | protein stability index (treatment: DMSO) | protein stability index (treatment: MLN4924 1 uM, 8 h)
STRWEVIAEDGTKEIESQGSIPGF [TAF7L] | 4.58 ± 0.067 | 4.54 ± 0.3
GDTLRTFSLVLVLDLSKPNDLWPT [DYNC2LI1] | 2.89 ± 0.37 | 2.82 ± 0.32
EEYSQIIYSTKLYRFFKYIENRDV [BTBD10] | 1.64 ± 0.19 | 1.87 ± 0.4
QKDLIMKVENLTLKNHFQSVLEQL [TAF7L] | 2.66 ± 0.2 | 2.4 ± 0.29
VSRREGALGWAPAAPPPLKDDPEG [ZBED3] | 5.24 ± 0.37 | 5.43 ± 0.12
QNPPVIKSSGRFLWIKFFAAGELE [NETO1] | 2.57 ± 0.53 | 2.11 ± 0.19
TLAGVGAQGAALEDPDYYGQEIWS [CPXM2] | – | 3.96 ± 0.11
PAVDLNQVLNETRNQYEALVETNR [KRT33B] | 3.39 ± 0.36 | 3.87 ± 0.74
GGTPHCEPCQLPSESPGSLSEVLA [DNAAF3] | 4.19 ± 0.49 | 4.56 ± 0.33
LRSCYFSDPDCSMRPTLIDLLPTF [FBXO39] | 2.46 ± 0.35 | 2.2 ± 0.26
ALPENEFKKQIWLLFEYPESSSPA [KCNA4] | 2.45 ± 0.16 | 2.44 ± 0.5
LDSCNSLTPKSTPVKTLPFSPSQF [MYBL2] | 3.34 ± 0.2 | 3.37 ± 0.42
PETEAVSSSQEIPTMPQPIEKVSV [ZMYND11] | 5.24 ± 0.33 | 5.36 ± 0.26
GKDHEILRRRIENGAKELWFFLQS [FUT8] | 2.08 ± 0.65 | 2.36 ± 0.27
FSIPPTNHEIMPGGSVNITCVAVG [PTPRD] | 2.22 ± 0.17 | 2.06 ± 0.14
TALLGGPRRCHSAPPQGSCGDELP [PLEKHN1] | 4.1 ± 0.3 | 4.45 ± 0.47
ELVSVEDLLKFEKKFQSEKAAGSV [FIS1] | 3.58 ± 0.3 | 4.07 ± 0.35
CFKGELPLRAVHINLEEKEKQIRS [PLEKHN1] | 3.95 ± 0.18 | 3.96 ± 0.33
GVFKFLRSEAVAQLWGQKKKNSNM [ELF3] | 2.83 ± 0.18 | 2.41 ± 0.33
LGVVYRSLSFEDELVYADDYIMDE [ESRRG] | 2.46 ± 0.04 | 2.67 ± 0.33
AVNLIESGACGAFVHGLEDEMYEV [INTS4] | 3.41 ± 0.24 | 3.45 ± 0.33
PFHEMFVSRGGHGQQDLFRVLKAY [TBC1D10A] | 2.25 ± 0.18 | 2.42 ± 0.085
